Changes are numbered by the printed parent chain. Names and notes keep the numbering of the source.

Assay [1] deals with T1, cynomolgus monkey FcγRIIa1 extracellular domain, His-tagged (cynomolgus monkey).
T1 construct: also called cyno FcgRIIa1; cynoFcγRIIa1; not shown: His-tag added to the C-terminus
T1 chain: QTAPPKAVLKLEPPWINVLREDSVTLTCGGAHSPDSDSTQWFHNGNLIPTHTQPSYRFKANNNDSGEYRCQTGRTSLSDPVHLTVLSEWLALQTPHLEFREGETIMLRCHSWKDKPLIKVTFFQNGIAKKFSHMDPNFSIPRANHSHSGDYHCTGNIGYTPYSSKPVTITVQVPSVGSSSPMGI
The assay is described as follows: SPR; KD of SG1 divided by KD of the variant.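 Also: relative to parent M103205H795-SG1 carrying the SG1 human heavy chain constant region.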 How it is done: (§1) Regarding such interactions, KD values were calculated using the following 1:1 binding model described in BIACORE® T100 Software Handbook BR1006-48 Edition AE.
(§2) The behavior of interacting molecules according to the 1:1 binding model on BIACORE® can be described by Equation 1: Req=C·R max/(KD+C)+RI, wherein, Req is a plot of steady-state binding levels to analyte concentration. C is concentration, RI is bulk refractive index contribution in the sample, and Rmax is analyte binding capacity of the surface. When this equation is rearranged, KD can be expressed as Equation 2: KD=C·Rmax/(Req−RI)−C. KD can be calculated by substituting the values of Rmax, RI, and C into Equation 1 or Equation 2. From the current measurement conditions, RI=0, C=2 μmol/L can be used.
(§3) The resultant variants were expressed using M103202L889-SK1 as light chain and their affinity to human and cynoFcγRs were evaluated (Table 21).
For orientation: SPR reads the build-up and loss of mass on a sensor chip optically.

The target in assay [2] is T2, cynomolgus monkey FcγRIIa2 extracellular domain, His-tagged (cynomolgus monkey).
T2 construct: also called cyno FcgRIIa2; cynoFcγRIIa2; not shown: His-tag added to the C-terminus
T2 chain: T1 chain with P95T, T121A, I127K, A128S, K130N, D135N, R142Q
The assay is described as follows: SPR; KD of SG1 divided by KD of the variant.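 Also: relative to parent M103205H795-SG1 carrying the SG1 human heavy chain constant region.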 How it is done:
as §1, §2, §3

For assay [3], the target named is T3, cynomolgus monkey FcγRIIb extracellular domain, His-tagged (cynomolgus monkey).
T3 construct: also called cyno FcgRIIb; cynoFcγRIIb; not shown: His-tag added to the C-terminus
T3 chain: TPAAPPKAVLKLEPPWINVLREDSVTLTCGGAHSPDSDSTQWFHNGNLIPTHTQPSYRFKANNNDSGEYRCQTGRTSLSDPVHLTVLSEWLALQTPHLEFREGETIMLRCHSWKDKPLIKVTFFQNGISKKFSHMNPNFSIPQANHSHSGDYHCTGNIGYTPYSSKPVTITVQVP
The assay is described as follows: SPR; KD of SG1 divided by KD of the variant.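 Also: relative to parent M103205H795-SG1 carrying the SG1 human heavy chain constant region.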 As to the method:
as §1, §2, §3

For assay [4], the target named is T4, cynomolgus monkey FcγRIIIaS extracellular domain, His-tagged (cynomolgus monkey, UniProt A3RFZ7 21-206 (rhesus entry)).
T4 construct: also called cyno FcgRIIIaS; cynoFcγRIIIaS; not shown: His-tag added to the C-terminus
The assay is described as follows: SPR; KD of SG1 divided by KD of the variant.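 Also: relative to parent M103205H795-SG1 carrying the SG1 human heavy chain constant region.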 As to the method: as §1, §2, §3
Target sequence in this assay (A3RFZ7 21-206): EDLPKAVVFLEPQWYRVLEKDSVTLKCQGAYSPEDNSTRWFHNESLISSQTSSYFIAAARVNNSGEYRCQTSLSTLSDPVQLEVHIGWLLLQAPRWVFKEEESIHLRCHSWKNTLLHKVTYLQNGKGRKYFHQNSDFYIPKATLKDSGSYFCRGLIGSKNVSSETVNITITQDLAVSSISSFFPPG

Assay [5] has as its target T5, human FcγRIIaH extracellular domain, His-tagged (human, UniProt P12318 34-217).
T5 construct: also called human FcgRIIaH; FcγRIIa (type H); not shown: His-tag added to the C-terminus
T5 sequence: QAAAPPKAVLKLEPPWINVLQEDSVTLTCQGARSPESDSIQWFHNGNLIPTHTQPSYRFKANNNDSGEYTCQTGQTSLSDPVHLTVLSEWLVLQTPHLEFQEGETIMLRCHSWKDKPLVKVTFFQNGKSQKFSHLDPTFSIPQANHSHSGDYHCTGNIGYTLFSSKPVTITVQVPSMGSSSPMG
The assay is described as follows: SPR; KD of SG1 divided by KD of the variant. As to the method:
as §1, §2, §3

Assay [6] addresses T6, human FcγRIIaR extracellular domain, His-tagged (human, UniProt P12318 34-217).
T6 construct: also called human FcgRIIaR; FcγRIIa (type R); not shown: His-tag added to the C-terminus
T6 chain: T5 sequence with H134R
The assay is described as follows: SPR; KD of SG1 divided by KD of the variant. As to the method:
as §1, §2, §3

The target in assay [7] is T7, human FcγRIIIaV extracellular domain, His-tagged (human, UniProt P08637 17-208).
T7 construct: also called human FcgRIIIaV; not shown: His-tag added to the C-terminus
T7 sequence (P08637 17-208 F176V): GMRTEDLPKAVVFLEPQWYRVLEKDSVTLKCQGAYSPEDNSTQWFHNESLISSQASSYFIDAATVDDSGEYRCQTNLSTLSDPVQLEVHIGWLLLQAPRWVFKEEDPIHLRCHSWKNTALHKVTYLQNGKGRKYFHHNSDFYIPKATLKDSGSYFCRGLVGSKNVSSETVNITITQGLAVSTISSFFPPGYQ
The assay is described as follows: SPR; KD of SG1 divided by KD of the variant. As to the method:
as §1, §2, §3

In assay [8] the target is T4, cynomolgus monkey FcγRIIIaS …. The assay is described as follows: SPR (BIACORE), antibody captured, FcγR as analyte, 25°C. How it is done: (§4) The kinetic analysis of interactions between these antibodies and FcγR was carried out using BIACORE® T200 or BIACORE® 4000 (GE Healthcare). HBS-EP+ (GE Healthcare) was used as the running buffer, and the measurement temperature was set to 25° C. A chip produced by immobilizing Protein A. Protein A/G or mouse anti-human IgG kappa light chain (BD Biosciences) onto a Series S Sensor Chip CM4 or CM5 (GE Healthcare) by the amine-coupling method was used. […] After the measurement, the antibody captured on the chip was washed off by allowing reaction with 10 mM glycine-HCl, pH1.5 and 25 mM NaOH so that the chip was regenerated and used repeatedly. The sensorgrams obtained as measurement results were analyzed by the 1:1 Langmuir binding model using the BIACORE® Evaluation Software to calculate the binding rate constant ka (L/mol/s) and dissociation rate constant kd (l/s), and the dissociation constant KD (mol/L) was calculated from these values. […] Regarding such interactions, KD values were calculated using the following 1:1 binding model described in BIACORE® T100 Software Handbook BR1006-48 Edition AE.
as §2

Assay [9] has as its target T8, human FcγRIIb extracellular domain, His-tagged (human, UniProt P31994 43-217).
T8 construct: also called human FcgRIIb; not shown: His-tag added to the C-terminus
T8 sequence: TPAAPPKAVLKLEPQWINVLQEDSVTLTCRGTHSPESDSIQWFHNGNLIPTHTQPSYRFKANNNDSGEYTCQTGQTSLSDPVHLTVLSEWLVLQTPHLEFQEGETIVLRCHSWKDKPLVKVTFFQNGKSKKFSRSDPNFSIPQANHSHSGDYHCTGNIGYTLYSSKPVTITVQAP
Described as above. How it is done:
as §4, §2

B1: MS1032LO06-SG1 (M103205H795-SG1/M103202L889-SK1) (antibody, human IgG1, kappa)
heavy: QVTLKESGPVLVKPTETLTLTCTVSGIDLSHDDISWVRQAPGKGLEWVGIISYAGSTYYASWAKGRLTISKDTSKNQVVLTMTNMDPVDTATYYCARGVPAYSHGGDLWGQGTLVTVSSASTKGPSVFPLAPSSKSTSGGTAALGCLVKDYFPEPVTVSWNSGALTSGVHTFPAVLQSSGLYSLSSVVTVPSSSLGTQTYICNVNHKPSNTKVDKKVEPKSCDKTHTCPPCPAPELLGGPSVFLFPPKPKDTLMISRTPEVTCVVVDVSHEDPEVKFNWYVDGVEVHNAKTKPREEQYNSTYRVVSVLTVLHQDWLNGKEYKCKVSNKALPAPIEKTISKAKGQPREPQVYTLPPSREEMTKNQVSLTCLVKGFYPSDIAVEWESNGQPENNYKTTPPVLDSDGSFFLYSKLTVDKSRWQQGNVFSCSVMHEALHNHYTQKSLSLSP
light: DIVMTQSPATLSLSPGERATLSCTSSQSVYHANWLSWFQQKPGQPPKLLIYWASTLAYGVPSRFSGSGSGTDFTLTISSLQPEDAATYYCAGGYGGGRYAFGQGTKVEIKRTVAAPSVFIFPPSDEQLKSGTASVVCLLNNFYPREAKVQWKVDNALQSGNSQESVTEQDSKDSTYSLSSTLTLSKADYEKHKVYACEVTHQGLSSPVTKSFNRGEC
notes: Anti-latent myostatin antibody; Parent of the Fc variants; copies: 2 + 2
For B1, the “KD fold (SG1 = 1)” value in [1], in assay [2], in assay [3], in assay [4], in assay [5] and in assay [6] was 1 fold throughout. Further, in assay [7], the “KD fold (SG1 = 1)” value turned out to be 1 fold. The results for the dissociation constant (Kd) in assay [8] and in assay [9] were 0.36 µM and 4.6 µM, respectively.

B2: M103205H795-MY264/M103202L889-SK1 (antibody, human IgG1, kappa)
heavy: QVTLKESGPVLVKPTETLTLTCTVSGIDLSHDDISWVRQAPGKGLEWVGIISYAGSTYYASWAKGRLTISKDTSKNQVVLTMTNMDPVDTATYYCARGVPAYSHGGDLWGQGTLVTVSSASTKGPSVFPLAPSSKSTSGGTAALGCLVKDYFPEPVTVSWNSGALTSGVHTFPAVLQSSGLYSLSSVVTVPSSSLGTQTYICNVNHKPSNTKVDKKVEPKSCDKTHTCPPCPAPELLLGPSVFLFPPKPKDTLMISRTPEVTCVVVDVSDEDPEVKFNWYVDGVEVHNAKTKPREEQYNSTYRVVSVLTVLHQDWLNGKEYKCKVSNKALPKPIEKTISKAKGQPREPQVYTLPPSREEMTKNQVSLTCLVKGFYPSDIAVEWESNGQPENNYKTTPPVLDSDGSFFLYSKLTVDKSRWQQGNVFSCSVMHEALHNHYTQKSLSLSP
light: B1 light
notes: copies: 2 + 2
With B2, the “KD fold (SG1 = 1)” value in [1] is 0.6 fold; in assay [2], 0.9 fold; in assay [3], 0.7 fold; in assay [4] it was 0.1 fold; in assay [5] it was 0.5 fold; in assay [6], 0.5 fold. The “KD fold (SG1 = 1)” value in assay [7] was 0.01 fold. In addition, the Kd (as a rule, a measure of binding affinity in units of concentration) in assay [8] was determined as 3.7 µM; in assay [9], 12 µM.

B3: M103205H795-MY265/M103202L889-SK1 (antibody, human IgG1, kappa)
heavy: B2 heavy with L238T
light: B1 light
notes: copies: 2 + 2
Consider B3, for which the “KD fold (SG1 = 1)” value in [1] was determined as 1.5 fold; in assay [2], 2.7 fold; in [3] it was 3.1 fold; in assay [4], 0.18 fold; in assay [5], 3.3 fold; in assay [6] it was 2.5 fold. Further, the “KD fold (SG1 = 1)” value in assay [7] was determined as 0.15 fold. In addition, the Kd in assay [8] is 2 µM; in assay [9] it was 2.2 µM.

B4: M103205H795-MY260/M103202L889-SK1 (antibody, human IgG1, kappa)
heavy: B2 heavy with L238M
light: B1 light
notes: copies: 2 + 2
In the case of B4, the “KD fold (SG1 = 1)” value in assay [1] came out at 0.7 fold; in assay [2], 1.4 fold; in [3] it was 1.1 fold; in assay [4] it was 0.55 fold; in assay [5], 0.8 fold; in assay [6], 0.6 fold. The “KD fold (SG1 = 1)” value in assay [7] is 0.27 fold. The equilibrium dissociation constant (Kd) in assay [8] is 0.65 µM; in assay [9] it was 6.1 µM.

B5: M103205H795-MY201/M103202L889-SK1 (antibody, human IgG1, kappa)
heavy: B2 heavy with L238N
light: B1 light
notes: Fc variant G236N/H268D/A330K (EU numbering) of SG1; also called MS1032LO06-MY201; copies: 2 + 2
As to B5, the “KD fold (SG1 = 1)” value in assay [1] is 2.3 fold; in assay [2], 3.6 fold; in [3], 4.2 fold; in [4] it was 0.06 fold; in [5], 0.8 fold; in [6], 0.6 fold. For the same molecule, the “KD fold (SG1 = 1)” value in assay [7] was determined as 0.03 fold. For the same molecule, the equilibrium dissociation constant (Kd) in [8] came to 5.7 µM; in assay [9], 1.1 µM.

B6: M103205H795-MY262/M103202L889-SK1 (antibody, human IgG1, kappa)
heavy: B2 heavy with L238V
light: B1 light
notes: copies: 2 + 2
For B6, the “KD fold (SG1 = 1)” value in assay [1] was 1.7 fold; in [2], 3 fold; in assay [3], 3.2 fold; in [4], 0.13 fold; in assay [5] it was 4.9 fold; in [6], 1.5 fold. Also, the “KD fold (SG1 = 1)” value in [7] was determined as 0.16 fold. Besides, the Kd in [8] was 2.8 µM; in assay [9], 6 µM.

B7: M103205H795-MY261/M103202L889-SK1 (antibody, human IgG1, kappa)
heavy: B2 heavy with L238H
light: B1 light
notes: copies: 2 + 2
As for B7, the “KD fold (SG1 = 1)” value in assay [1] amounted to 0.9 fold; in [2] it was 1.3 fold; in assay [3] it was 1.2 fold; in assay [4], 0.15 fold; in assay [5], 2.9 fold; in assay [6], 1 fold. The “KD fold (SG1 = 1)” value in assay [7] came out at 0.07 fold. Also, the Kd in [8] was found to be 0.074 µM; in [9], 5.3 µM.

B8: M103205H795-MY263/M103202L889-SK1 (antibody, human IgG1, kappa)
heavy: B2 heavy with L238Q
light: B1 light
notes: copies: 2 + 2
On to B8, for which the “KD fold (SG1 = 1)” value in [1] is 1 fold; in [2], 1.7 fold; in assay [3], 1.8 fold; in assay [4] it was 0.46 fold; in [5], 2.2 fold; in [6], 1.5 fold. Besides, the “KD fold (SG1 = 1)” value in assay [7] worked out at 0.35 fold. Also, the dissociation constant Kd worked out at 0.78 µM in [8] and 3.5 µM in [9].
